Consider two molecules from patent US20190062420A1 (Janssen / Centocor, published 2019).

In test [1] the target is T1, human FcγRIIB (NM_004001) expressed on cells (human, UniProt P31994 43-310).
T1 sequence: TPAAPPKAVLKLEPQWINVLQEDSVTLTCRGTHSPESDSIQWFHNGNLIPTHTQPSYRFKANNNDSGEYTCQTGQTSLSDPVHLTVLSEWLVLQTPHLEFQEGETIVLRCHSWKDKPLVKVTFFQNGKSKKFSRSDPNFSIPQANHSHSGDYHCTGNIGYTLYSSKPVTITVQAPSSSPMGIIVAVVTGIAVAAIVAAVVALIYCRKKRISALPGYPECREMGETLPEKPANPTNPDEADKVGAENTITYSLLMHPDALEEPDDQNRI
In words: cell-based or functional assay.

In test [2] the target is T2, human FcγRIIA (NM_021642) expressed on cells (human, UniProt P12318 36-317).
T2 sequence: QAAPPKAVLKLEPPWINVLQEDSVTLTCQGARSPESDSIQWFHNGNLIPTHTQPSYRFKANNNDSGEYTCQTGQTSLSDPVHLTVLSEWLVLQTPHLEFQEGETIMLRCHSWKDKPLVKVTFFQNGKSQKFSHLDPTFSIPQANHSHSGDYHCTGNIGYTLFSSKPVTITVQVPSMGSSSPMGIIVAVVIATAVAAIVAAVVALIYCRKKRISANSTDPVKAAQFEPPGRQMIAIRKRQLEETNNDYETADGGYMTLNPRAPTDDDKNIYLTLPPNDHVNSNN
Description: cell-based or functional assay.

The target of test [3] is T3, human FcγRIIIA (NM_000569) expressed on cells (human, UniProt P08637 17-254). In words: cell-based or functional assay.
In a further test the target is T4, FcγRIIA protein (human, UniProt P12318 36-217, biotinylated (SureLINK Biotin Kit) in the ELISA of Example 1).
T4 sequence: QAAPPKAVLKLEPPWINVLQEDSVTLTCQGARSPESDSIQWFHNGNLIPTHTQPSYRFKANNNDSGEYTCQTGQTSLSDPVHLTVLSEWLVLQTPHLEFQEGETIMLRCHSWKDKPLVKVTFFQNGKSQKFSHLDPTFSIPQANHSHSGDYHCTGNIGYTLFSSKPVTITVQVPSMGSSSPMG
Description: cell-based or functional assay.

For the next test, the target named is T5, FcγRIIB protein (human, UniProt P31994 43-217, biotinylated (SureLINK Biotin Kit) in the ELISA of Example 1).
T5 sequence: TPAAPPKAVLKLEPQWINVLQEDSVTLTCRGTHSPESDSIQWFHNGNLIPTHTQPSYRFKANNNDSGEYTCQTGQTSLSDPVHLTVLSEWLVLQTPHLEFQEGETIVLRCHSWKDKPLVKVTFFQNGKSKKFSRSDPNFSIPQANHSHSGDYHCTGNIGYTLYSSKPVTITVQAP
In words: cell-based or functional assay.

Test [4] concerns the target T6, human OX40 expressed on HEK-Blue: OX40 cells (human, UniProt P43489 29-277).
T6 construct: also called CD134
T6 sequence: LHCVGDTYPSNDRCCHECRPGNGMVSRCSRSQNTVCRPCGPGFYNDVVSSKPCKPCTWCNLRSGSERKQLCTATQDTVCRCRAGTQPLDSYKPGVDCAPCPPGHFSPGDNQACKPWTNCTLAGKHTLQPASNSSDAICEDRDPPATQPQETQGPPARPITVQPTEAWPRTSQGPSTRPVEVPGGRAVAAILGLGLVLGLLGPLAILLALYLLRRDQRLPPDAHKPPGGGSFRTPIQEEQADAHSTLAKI
In words: flow cytometry; HEK-Blue: OX40 cells. The procedure, abridged:
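HEK-Blue Null 1 cells stably transfected with human OX40 were blocked, then incubated with mAbtyrin for 1.5 h at 4 °C. Binding was detected with a PE anti-human IgG F(ab′)₂ secondary, gating on DRAQ7-excluding live cells and taking geometric mean fluorescence. EC50 came from nonlinear regression versus log antibody concentration.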
(In general: In flow cytometry, cells or beads pass a laser one at a time.)

The target in test [5] is T7, human FcγRI (NM_000566) expressed on cells (human, UniProt P12314 16-374).
T7 construct: Transiently expressed on Expi293F cells
In words: flow cytometry; Expi293F cells transfected with FcγRI. The protocol: (§1) Plasmids expressing cDNAs encoding human FcγRI (NM_000566) (SEQ ID NO: 44), FcγRIIA (NM_021642) (SEQ ID NO: 2), FcγRIIB (NM_004001) (SEQ ID NO: 3), and FcγRIIIA (NM_000569) (SEQ ID NO: 45) (Origene) were transiently transfected into Expi293F cells by ExpiFectamine293 transfection kit (Life Technologies). Flow cytometry assays were performed 48 h after transfection.
(§2) 2×10⁵ cells per well were seeded in 96-well plate and blocked in BSA Stain Buffer (BD Biosciences, San Jose, USA) for 30 min at 4° C. Cells were incubated with test mAbtyrin on ice for 1.5 h at 4° C. After being washed twice with BSA stain buffer, the cells were incubated with R-PE labeled anti-human or anti-mouse IgG secondary antibody (Jackson Immunoresearch Laboratories) for 45 min at 4° C. The cells were washed twice in stain buffer and then resuspended in 150 μL of Stain Buffer containing 1:200 diluted DRAQ7 live/dead stain (Cell Signaling Technology, Danvers, USA). PE and DRAQ7 signals of the stained cells were detected by Miltenyi MACSQuant flow cytometer (Miltenyi Biotec, Auburn, USA) using B2 and B4 channel respectively. Live cells were gated on DRAQ7 exclusion and the geometric mean fluorescence signals were determined for at least 10,000 live events collected. FlowJo software (Tree Star) was used for analysis. Data was plotted as the logarithm of antibody concentration versus mean fluorescence signals. Nonlinear regression analysis was performed by GraphPad Prism 6 (GraphPad Software, Inc.) and EC₅₀ values were calculated.

Test [6] concerns the target T2, human FcγRIIA (NM_021642) expressed on …. Description: flow cytometry; Expi293F cells transfected with FcγRIIA. On the procedure:
as §1, §2

Test [7] deals with T1, human FcγRIIB (NM_004001) expressed on …. Description: flow cytometry; Expi293F cells transfected with FcγRIIB. On the procedure:
as §1, §2

Test [8] addresses T3, human FcγRIIIA (NM_000569) expressed on …. Description: flow cytometry; Expi293F cells transfected with FcγRIIIA. On the procedure:
as §1, §2

The target of test [9] is T1, human FcγRIIB (NM_004001) expressed on …. Description: flow cytometry; Raji cells (express predominantly FcγRIIB). On the procedure: as §2
Raji cell is a cell line derived from B cells that express predominantly FcγRIIB. The binding of mAbtyrins on Raji cells were investigated by flow cytometry assay described for testing mAbtyrin binding to FcγR. Binding of the mAbtyrins were detected by flow cytometry using a PE-labeled Goat F(ab′) against Human IgG(γ).

In general, EC50 refers to the concentration that produces a half-maximal response. A higher EC50 goes with a less potent agent.

T3 sequence (P08637 17-254 limits assumed): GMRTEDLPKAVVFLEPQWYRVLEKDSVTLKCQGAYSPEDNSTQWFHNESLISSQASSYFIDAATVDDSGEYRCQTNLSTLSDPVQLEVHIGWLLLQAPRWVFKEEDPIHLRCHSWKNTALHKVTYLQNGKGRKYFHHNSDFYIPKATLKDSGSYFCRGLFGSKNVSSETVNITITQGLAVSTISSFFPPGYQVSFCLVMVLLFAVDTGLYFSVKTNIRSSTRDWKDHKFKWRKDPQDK
T7 sequence (P12314 16-374 limits assumed): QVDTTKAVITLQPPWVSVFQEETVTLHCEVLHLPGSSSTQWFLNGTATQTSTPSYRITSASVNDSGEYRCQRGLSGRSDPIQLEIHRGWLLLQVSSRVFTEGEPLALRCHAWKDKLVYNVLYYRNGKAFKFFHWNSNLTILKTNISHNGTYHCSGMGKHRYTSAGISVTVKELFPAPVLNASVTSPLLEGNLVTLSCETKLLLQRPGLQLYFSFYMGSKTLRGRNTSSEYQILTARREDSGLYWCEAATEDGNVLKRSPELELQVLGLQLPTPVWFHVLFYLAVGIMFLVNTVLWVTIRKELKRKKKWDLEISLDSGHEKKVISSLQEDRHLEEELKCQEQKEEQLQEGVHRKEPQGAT

B1: OX40SF2IgG2sigma_R2BS29_HC-N (bispecific antibody)
heavy: LPAPKNLVVSRVTEDSARLSWTAPDAAFDSFPIYYWEYRVGGEAIVLTVPGSERSYDLTGLKPGTEYFVYINGVKGGEESRPLSAIFTTGGGGSGGGGSGGGGSGGGGSQVQLVQSGAEVKKPGSSVKVSCKASGYTFKDYTMHWVRQAPGQGLEWIGGIYPNNGGSTYNQNFKDRVTLTADKSTSTAYMELSSLRSEDTAVYYCARMGYHGPHLDFDVWGQGTTVTVSSASTKGPSVFPLAPCSRSTSESTAALGCLVKDYFPEPVTVSWNSGALTSGVHTFPAVLQSSGLYSLSSVVTVPSSNFGTQTYTCNVDHKPSNTKVDKTVERKCCVECPPCPAPPAAASSVFLFPPKPKDTLMISRTPEVTCVVVDVSAEDPEVQFNWYVDGVEVHNAKTKPREEQFNSTFRVVSVLTVLHQDWLNGKEYKCKVSNKGLPSSIEKTISKTKGQPREPQVYTLPPSREEMTKNQVSLTCLVKGFYPSDIAVEWESNGQPENNYKTTPPMLDSDGSFFLYSKLTVDKSRWQQGNVFSCSVMHEALHNHYTQKSLSLSPGK
light: DIQMTQSPSSLSASVGDRVTITCKASQDVGAAVAWYQQKPGKAPKLLIYWASTRHTGVPSRFSGSGSGTDFTLTISSLQPEDFATYYCQQYINYPLTFGGGTKVEIKRTVAAPSVFIFPPSDEQLKSGTASVVCLLNNFYPREAKVQWKVDNALQSGNSQESVTEQDSKDSTYSLSSTLTLSKADYEKHKVYACEVTHQGLSSPVTKSFNRGEC
notes: mAbtyrin: R2BS29 FN3 domain and linker at the N-terminus of the heavy chain of OX40SF2IgG2sigma; also called mAbtyrin
Consider B1, for which, in test [1], the “% activity at 1 µg/ml with Raji cells (HEK-Blue: OX40 NF-κB reporter)” value was determined as 7%. The “ADCP EC50” value in test [2] came out at 0.012 µg/mL. Besides, in test [3], the “ADCC (fold activation) at 1 µg/ml” value is 1 fold. Also, in the test with FcγRIIA protein, the “IFNγ production by activated CD4 T cells, plate-coated FcγRIIA” value came out at 89 pg/mL. In addition, the “TNFα production by activated CD4 T cells, plate-coated FcγRIIA” value with FcγRIIA protein is 28 pg/mL. In the test with FcγRIIB protein, the “IFNγ production by activated CD4 T cells, plate-coated FcγRIIb” value stood at 76 pg/mL. Moreover, in the test with FcγRIIB protein, the “TNFα production by activated CD4 T cells, plate-coated FcγRIIb” value is 29 pg/mL. The EC50 in test [4] was 0.161 µg/mL; in test [5] it was above 10 µg/mL; in [6], 0.042 µg/mL; in test [7] it was 1.01 µg/mL; in [8], above 10 µg/mL; in test [9], 1.2 µg/mL.

B2: OX40SF2IgG2sigma_R2BS29_LC-C (bispecific antibody)
heavy: QVQLVQSGAEVKKPGSSVKVSCKASGYTFKDYTMHWVRQAPGQGLEWIGGIYPNNGGSTYNQNFKDRVTLTADKSTSTAYMELSSLRSEDTAVYYCARMGYHGPHLDFDVWGQGTTVTVSSASTKGPSVFPLAPCSRSTSESTAALGCLVKDYFPEPVTVSWNSGALTSGVHTFPAVLQSSGLYSLSSVVTVPSSNFGTQTYTCNVDHKPSNTKVDKTVERKCCVECPPCPAPPAAASSVFLFPPKPKDTLMISRTPEVTCVVVDVSAEDPEVQFNWYVDGVEVHNAKTKPREEQFNSTFRVVSVLTVLHQDWLNGKEYKCKVSNKGLPSSIEKTISKTKGQPREPQVYTLPPSREEMTKNQVSLTCLVKGFYPSDIAVEWESNGQPENNYKTTPPMLDSDGSFFLYSKLTVDKSRWQQGNVFSCSVMHEALHNHYTQKSLSLSPGK
light: DIQMTQSPSSLSASVGDRVTITCKASQDVGAAVAWYQQKPGKAPKLLIYWASTRHTGVPSRFSGSGSGTDFTLTISSLQPEDFATYYCQQYINYPLTFGGGTKVEIKRTVAAPSVFIFPPSDEQLKSGTASVVCLLNNFYPREAKVQWKVDNALQSGNSQESVTEQDSKDSTYSLSSTLTLSKADYEKHKVYACEVTHQGLSSPVTKSFNRGECGGGGSGGGGSGGGGSGGGGSMLPAPKNLVVSRVTEDSARLSWTAPDAAFDSFPIYYWEYRVGGEAIVLTVPGSERSYDLTGLKPGTEYFVYINGVKGGEESRPLSAIFTT
notes: mAbtyrin: linker and R2BS29 FN3 domain at the C-terminus of the light chain of OX40SF2IgG2sigma; also called mAbtyrin
Take B2: in test [1], the “% activity at 1 µg/ml with Raji cells (HEK-Blue: OX40 NF-κB reporter)” value turned out to be 76%. Also, the “ADCP EC50” value in [2] worked out at 0.0165 µg/mL. For the same molecule, the “ADCC (fold activation) at 1 µg/ml” value in test [3] stood at 1 fold. For the same molecule, the “IFNγ production by activated CD4 T cells, plate-coated FcγRIIA” value in the test with FcγRIIA protein came to 153 pg/mL. For the same molecule, in the test with FcγRIIA protein, the “TNFα production by activated CD4 T cells, plate-coated FcγRIIA” value came to 30 pg/mL. Moreover, in the test with FcγRIIB protein, the “IFNγ production by activated CD4 T cells, plate-coated FcγRIIb” value is 89 pg/mL. The “TNFα production by activated CD4 T cells, plate-coated FcγRIIb” value with FcγRIIB protein was 30 pg/mL. The 50% effective concentration (EC50) in test [4] was 0.196 µg/mL; in test [5] it was above 10 µg/mL; in [6], 0.054 µg/mL; in [7] it was 0.941 µg/mL; in test [8], above 10 µg/mL; in test [9], 3.44 µg/mL.
